Target: Bat37ACE2(18–740) (Pipistrellus pipistrellus (Bat37))
Test: […]; 20 mM HEPES, 100 mM NaCl, pH 7.5

Bat37ACE2(18–740) (domain or fragment)
stoichiometry N: 2

From article PMC9734910
